Values of other authors in article PMC6502704.
Read-outs that look alike come from different tables or passages of the source.

Assays:
BMAL1 TAD (Mus musculus) [1] = target: BMAL1 TAD (Mus musculus) (UniProt Q9WTL8)
BMAL1 TAD (Mus musculus) [2] = target: BMAL1 TAD (Mus musculus) (UniProt Q9WTL8); remark: listed apart in the source
[3] = target: BMAL1 577-625 (Mus musculus) (UniProt Q9WTL8)
[4] = target: BMAL1 490-625 (Mus musculus) (UniProt Q9WTL8)
[5] = target: BMAL1 577-625 (Mus musculus) (UniProt Q9WTL8); remark: listed apart in the source

In the case of CBP KIX (from UniProt P45481), the Kd (BMAL1 TAD (Mus musculus) [1]) is listed as 2 µM.
In the case of CRY1 (from UniProt P97784), the Kd (BMAL1 TAD (Mus musculus) [2]) is listed as 10 µM.
In the case of CRY1 CCT (from UniProt P97784), the Kd [3] is given as 10 µM.
For CRY2 CCT (from UniProt Q9R194), the Kd [4] is given as 10 µM and the Kd [5] is given as 10 µM.
